{"source": "patent US7294481", "target": "TNF-α (UniProt P01375)", "sequence (P01375 77-233 limits assumed)": "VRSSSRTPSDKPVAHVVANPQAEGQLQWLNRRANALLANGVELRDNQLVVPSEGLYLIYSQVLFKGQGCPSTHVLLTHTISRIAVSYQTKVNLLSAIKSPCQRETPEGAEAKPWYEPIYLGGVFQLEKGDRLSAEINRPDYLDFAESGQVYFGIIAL", "experiment": "cell-based or functional assay", "data": [{"substance": "TNFR:Fc, HIC peak 2 fraction (Fc fusion)", "values": [{"measurement": "bioactivity (A375 assay; HIC with sodium acetate gradient)", "result": "2.71e+06", "unit": "U/mg"}, {"measurement": "bioactivity (A375 cell killing neutralisation assay), compared to unfractionated material", "result": 117, "unit": "%"}]}, {"substance": "recombinant human TNFR:Fc fusion protein (TNFR-II:Fc), protein A purified, not HIC-fractionated", "values": [{"measurement": "Bioassay 10^6 units/mg (n = 2); VA12 cells, production at 28° C., IGF-1", "result": "2.07e+06", "unit": "units/mg"}, {"measurement": "Bioassay 10^6 units/mg (n = 2); VA12 cells, production at 32° C., IGF-1", "result": "1.62e+06", "unit": "units/mg"}, {"measurement": "Bioassay 10^6 units/mg (n = 2); VA12 cells, production at 34° C., IGF-1", "result": 950000, "unit": "units/mg"}, {"measurement": "Bioassay 10^6 units/mg (n = 2); VA12 cells, production at 37° C., IGF-1", "result": 490000, "unit": "units/mg"}]}, {"substance": "TNFR:Fc, HIC peak 3 fraction (Fc fusion)", "values": [{"measurement": "bioactivity (A375 assay; HIC with sodium acetate gradient)", "result": "< 340000", "unit": "U/mg"}, {"measurement": "bioactivity (A375 cell killing neutralisation assay), compared to unfractionated material", "result": 11, "unit": "%"}]}]}
